doi:10.1101/2024.10.24.620072
Blank lines part the entries; values can stand above or below the substance they belong to.

Key:
[1] = target: fluorescently labeled H2a(G129C)-H2b dimer (human) (UniProt P04908); test: MST
[2] = target: human (H3-H4)2 tetramer (human) (UniProt P68431); test: MST

KD of one of two binding sites [1]: 500 nM
KD of the other of two binding sites [1]: 2600 nM
Substance: αSyn(121-140) peptide (from UniProt P37840 121-140)

Kd [2]: 50 nM
Substance: human α-Synuclein, full-length (from UniProt P37840 1-140) (natural protein)

Kd [1]: 32400 nM
Substance: αSyn(1-131) (from UniProt P37840 1-131) (domain or fragment)

Kd [2]: 107 nM
Substance: αSyn(1-103) (from UniProt P37840 1-103) (domain or fragment)
